Measured values reported in the supplement of paper PMC9876800.

Test system: peptide library, one residue held at a place counted from the S/T acceptor
Experiment: relative phosphorylation of the sub-library (ratio to the mean residue at this position); higher = residue favoured
Details: human
How it was run: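 Relative sub-library phosphorylation is a ratio to the mean residue at the same position. Purified recombinant kinases were incubated under kinase-specific conditions with biotinylated degenerate peptide sub-libraries, each fixing one residue at one position around a central Ser/Thr, using 50 μM peptide and 50 μM ATP spiked with γ-32P-ATP for 90 min. Spots captured on streptavidin membranes were phosphorimaged and quantified by densitometry.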

AKT1, construct: aa109-end, sequence (P31749 109-480, looked up): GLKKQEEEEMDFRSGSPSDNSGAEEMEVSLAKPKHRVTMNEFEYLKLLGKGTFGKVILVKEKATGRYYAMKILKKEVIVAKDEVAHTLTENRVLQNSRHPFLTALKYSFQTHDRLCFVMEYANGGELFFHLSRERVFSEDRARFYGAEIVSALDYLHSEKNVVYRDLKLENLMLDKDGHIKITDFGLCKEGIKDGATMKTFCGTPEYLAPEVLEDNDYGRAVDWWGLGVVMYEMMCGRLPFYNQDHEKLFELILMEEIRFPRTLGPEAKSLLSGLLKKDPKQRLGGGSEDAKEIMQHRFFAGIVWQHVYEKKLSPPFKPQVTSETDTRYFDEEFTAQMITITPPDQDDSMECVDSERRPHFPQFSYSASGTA
AAK1, construct: aa27-365, sequence (Q2M2I8 27-365, looked up): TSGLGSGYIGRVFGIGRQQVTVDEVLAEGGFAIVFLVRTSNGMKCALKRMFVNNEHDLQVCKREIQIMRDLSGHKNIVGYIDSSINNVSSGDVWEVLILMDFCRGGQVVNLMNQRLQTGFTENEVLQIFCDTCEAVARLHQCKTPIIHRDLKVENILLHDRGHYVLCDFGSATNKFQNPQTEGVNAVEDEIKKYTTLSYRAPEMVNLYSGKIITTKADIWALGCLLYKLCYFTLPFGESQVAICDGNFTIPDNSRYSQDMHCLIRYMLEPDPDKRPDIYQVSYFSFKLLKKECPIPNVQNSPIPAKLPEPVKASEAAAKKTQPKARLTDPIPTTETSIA
ACVR2B, construct: aa161-end, sequence (Q13705 161-512, looked up): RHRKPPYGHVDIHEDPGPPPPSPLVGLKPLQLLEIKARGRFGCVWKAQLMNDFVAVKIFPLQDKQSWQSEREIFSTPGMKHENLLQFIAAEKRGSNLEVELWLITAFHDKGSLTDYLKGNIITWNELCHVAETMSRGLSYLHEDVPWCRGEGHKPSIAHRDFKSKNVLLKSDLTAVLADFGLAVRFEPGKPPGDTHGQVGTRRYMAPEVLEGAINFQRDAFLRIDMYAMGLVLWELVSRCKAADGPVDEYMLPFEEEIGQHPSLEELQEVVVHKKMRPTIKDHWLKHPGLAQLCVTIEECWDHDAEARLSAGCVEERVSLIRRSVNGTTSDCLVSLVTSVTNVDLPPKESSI

AAK1, construct: aa27-365 (from UniProt Q2M2I8)
relative phosphorylation
Details	at +1	at +2	at +3	at +4	at -1	at -2	at -3	at -4	at -5
A fixed	0.53	1.27	0.989	1.1	0.654	0.915	1.9	1.2	0.482
D fixed	0.174	0.939	0.688	0.662	0.274	1.37	0.462	0.565	0.273
E fixed	0.167	0.89	0.631	0.778	0.248	1.08	0.629	0.951	0.26
F fixed	0.219	0.826	0.731	0.89	0.926	0.571	0.828	0.883	0.722
G fixed	12.3	1.27	1.57	1.19	1.2	0.48	0.87	1.09	0.416
H fixed	0.272	1.05	1.15	0.951	1.17	0.963	0.676	0.874	0.564
I fixed	0.173	0.629	0.659	0.706	0.739	0.642	1.02	1.06	2.64
K fixed	0.33	0.98	1.26	1.41	2.09	0.998	0.879	1.38	0.445
L fixed	0.222	0.703	0.831	0.783	1.11	0.968	0.896	1.26	1.69
M fixed	0.21	0.817	0.743	0.789	0.941	1.98	1.33	1.18	1.47
N fixed	0.289	1.42	1.25	1.01	0.737	1.37	0.989	0.73	0.468
P fixed	0.787	0.896	1.16	1.07	1.93	0.385	1.84	0.908	1.22
Q fixed	0.235	1.31	1.06	1.08	0.675	2.58	1.18	1.07	0.952
R fixed	0.423	1.32	1.53	1.58	1.57	0.943	0.987	1.22	1.62
V fixed	0.182	0.922	1.04	0.718	0.666	0.578	1.09	1.05	1.62
W fixed	0.276	0.973	0.817	1.4	0.748	0.492	0.722	0.686	0.535
Y fixed	0.243	0.78	0.905	0.886	1.32	0.678	0.699	0.908	1.62
pThr fixed	0.209	0.696	0.57	0.427	0.206	0.356	0.514	0.564	0.342
pTyr fixed	0.171	0.697	0.61	0.46	0.303	0.826	0.466	0.576	1.04

ACVR2B, construct: aa161-end (from UniProt Q13705)
relative phosphorylation
Details	at +1	at +2	at +3	at +4	at -1	at -2	at -3	at -4	at -5
A fixed	0.595	1.11	0.975	1.11	0.803	0.672	0.922	0.979	0.962
D fixed	2.06	1.33	0.992	1.24	1.46	3.9	1.99	1.75	1.81
E fixed	3.92	1.1	1.26	1.18	1.31	5.09	2	1.49	1.53
F fixed	0.786	0.848	0.958	0.819	1.01	0.514	0.898	1.06	1.03
G fixed	0.531	1.27	1.09	0.987	0.57	0.472	0.941	1.07	0.878
H fixed	0.823	0.877	0.867	0.955	1.01	0.664	0.928	1.04	0.88
I fixed	0.875	0.985	1	0.924	0.746	0.396	0.77	0.78	0.752
K fixed	0.372	0.75	0.617	0.767	0.554	0.403	0.722	0.644	0.734
L fixed	0.752	0.69	1.17	0.901	1.38	0.532	0.725	0.88	0.8
M fixed	0.917	0.868	1.03	0.887	1.37	0.458	0.802	0.853	0.878
N fixed	0.742	0.933	0.887	0.905	0.948	0.876	0.987	0.971	1.01
P fixed	0.316	1.41	1.18	1.22	0.595	0.335	0.784	0.913	0.905
Q fixed	1.02	0.859	0.904	0.994	0.81	0.659	0.947	0.838	0.847
R fixed	0.374	0.826	0.769	0.827	0.531	0.45	0.621	0.626	0.802
V fixed	1.06	1.13	0.98	0.941	1.04	0.534	0.892	0.883	0.924
W fixed	0.969	0.954	1.13	1.33	1.56	0.512	1.11	1.2	1.23
Y fixed	0.886	1.07	1.19	0.998	1.31	0.527	0.963	1.03	1.03
pThr fixed	4.33	1.49	1.08	1.29	1.86	1.18	1.78	1.34	1.29
pTyr fixed	2.48	1.11	1.19	1.08	1.85	0.886	2.34	1.45	1.26

AKT1, construct: aa109-end (from UniProt P31749)
relative phosphorylation
Details	at +1	at +2	at +3	at +4	at -1	at -2	at -3	at -4	at -5
A fixed	0.492	0.908	0.834	0.83	0.739	0.942	0.543	0.894	0.938
D fixed	0.294	0.547	0.499	0.752	0.726	0.143	0.165	0.567	0.639
E fixed	0.292	0.394	0.537	0.53	0.387	0.132	0.164	0.703	0.639
F fixed	2.31	0.76	1.03	0.662	0.832	0.504	0.271	0.734	0.929
G fixed	0.657	1.07	1.21	1.01	1.32	0.592	0.453	1.03	1.01
H fixed	0.791	1.56	1.3	1.13	1.18	0.839	0.837	1.02	1.11
I fixed	1.7	1.02	0.838	0.646	0.337	0.414	0.245	0.66	0.74
K fixed	0.854	1.3	1.56	1.95	1.78	2.18	2.33	1.85	1.61
L fixed	1.22	1.13	0.826	0.786	0.978	1.02	0.295	0.75	0.789
M fixed	1.69	0.787	0.839	0.773	1.13	0.498	0.282	0.9	0.859
N fixed	0.924	1.08	1.06	1.1	1.44	0.444	0.332	0.804	0.795
P fixed	0.36	0.733	0.833	1.57	1.04	0.303	0.507	0.91	1.03
Q fixed	1.08	0.903	0.964	1.25	1.01	0.546	0.56	0.91	0.835
R fixed	0.952	1.95	1.94	1.84	1.75	7.28	9.07	2.75	2.58
V fixed	1.4	1.11	0.782	0.702	0.449	0.44	0.238	0.757	0.727
W fixed	1.12	0.831	0.963	0.884	0.663	0.332	0.352	0.972	0.893
Y fixed	0.853	0.913	0.979	0.593	1.24	0.392	0.355	0.785	0.877
pThr fixed	0.455	0.493	0.573	0.668	0.301	0.348	0.322	0.767	0.724
pTyr fixed	0.575	0.645	0.577	0.447	0.9	0.273	0.299	0.692	0.728

BCKDK, construct: Full length (from UniProt O14874)
relative phosphorylation
Details	at +1	at +2	at +3	at +4	at -1	at -2	at -3	at -4	at -5
A fixed	0.707	0.962	0.785	0.937	0.696	0.951	0.894	0.988	1.02
D fixed	0.393	1.11	2.51	0.922	1.32	0.571	0.616	0.717	0.856
E fixed	0.404	0.981	1.16	0.957	0.351	0.544	0.654	0.821	0.72
F fixed	0.915	0.909	1.11	1.13	0.742	1.19	1.26	1.14	1.18
G fixed	0.489	1.36	1.11	0.99	1.3	1.72	1.09	1.18	1.14
H fixed	0.698	1.31	0.929	0.973	1.69	1.33	1.17	1.14	1.26
I fixed	1.59	0.502	0.71	0.645	0.565	0.913	0.854	0.871	0.794
K fixed	0.483	0.704	0.538	0.577	0.425	0.901	0.8	0.886	1.02
L fixed	2.58	0.628	1.03	0.656	0.607	0.855	0.877	0.964	0.858
M fixed	2.1	0.966	0.889	0.781	0.577	1.05	1.01	1.1	0.962
N fixed	0.513	1.16	0.754	0.761	4.15	0.917	0.932	0.786	0.944
P fixed	0.404	0.61	0.831	1.08	0.432	0.866	0.976	1.05	0.819
Q fixed	0.69	1.17	0.749	0.724	0.619	0.867	0.804	0.75	0.678
R fixed	0.671	1.43	0.834	0.859	0.562	0.893	1.02	0.937	1.01
V fixed	1.84	0.553	0.641	0.709	0.514	0.699	0.734	0.791	0.879
W fixed	0.688	1.35	1.53	2.53	1.06	1.51	1.74	1.64	1.73
Y fixed	1.84	1.28	0.896	1.76	1.39	1.23	1.57	1.24	1.13
pThr fixed	0.535	0.616	0.681	0.682	0.541	0.847	0.904	0.931	0.896
pTyr fixed	0.502	0.681	0.53	1.46	0.581	0.994	1.31	1.14	0.896
